Results reported in PMC6344858.

Tests used:
[1] = target: PfoI restriction endonuclease, wild type (Pseudomonas fluorescens biovar 126); assay: dynamic light scattering; PfoI-SP14 complex at various concentrations; Malvern Zetasizer uV; MW estimated from the apparent particle diameter
[2] = target: PfoI restriction endonuclease, wild type (Pseudomonas fluorescens biovar 126); assay: SEC; analytical gel filtration on Superdex75 10/300; 10 mM Tris-HCl pH 7.5, 5 mM calcium chloride, with 150 mM NaCl ('low salt') or 300 mM KCl ('high salt'); 13.8 uM PfoI dimer with or without oligoduplex SP14-GF (1:1.2)

stoichiometry N [1]: 2
stoichiometry N [2]: 2
Substance: PfoI restriction endonuclease, wild type (enzyme)
